Values quoted from earlier work in paper PMC10910082.
Like-named read-outs stand apart in the source and are kept apart here.

Key:
CD155 (Homo sapiens) [1] = molecular target: CD155 (Homo sapiens) (UniProt P15151)
CD86 (Homo sapiens) = CD86 (Homo sapiens) (UniProt P42081)
CD80 (Homo sapiens) = CD80 (Homo sapiens) (UniProt P33681)
CD155 (Homo sapiens) [2] = molecular target: CD155 (Homo sapiens) (UniProt P15151); remark: listed apart in the source

Chain of UniProt P15151 (P15151 21-343): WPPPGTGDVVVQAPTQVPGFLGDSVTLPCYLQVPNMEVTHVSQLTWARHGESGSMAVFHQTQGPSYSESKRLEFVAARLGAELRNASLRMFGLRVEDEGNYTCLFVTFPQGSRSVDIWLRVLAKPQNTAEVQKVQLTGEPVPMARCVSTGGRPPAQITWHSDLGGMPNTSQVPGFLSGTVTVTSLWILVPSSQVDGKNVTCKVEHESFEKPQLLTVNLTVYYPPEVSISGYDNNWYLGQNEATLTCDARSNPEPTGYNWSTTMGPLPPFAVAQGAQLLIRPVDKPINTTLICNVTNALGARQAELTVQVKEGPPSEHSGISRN
Chain of UniProt P42081 (P42081 24-247): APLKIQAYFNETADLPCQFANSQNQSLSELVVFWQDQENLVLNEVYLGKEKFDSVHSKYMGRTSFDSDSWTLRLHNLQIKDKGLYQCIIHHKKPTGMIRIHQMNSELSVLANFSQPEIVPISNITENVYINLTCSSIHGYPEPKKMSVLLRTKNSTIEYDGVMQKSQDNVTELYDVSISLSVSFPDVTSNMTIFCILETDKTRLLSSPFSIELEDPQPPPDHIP
Chain of UniProt P33681 (P33681 35-242): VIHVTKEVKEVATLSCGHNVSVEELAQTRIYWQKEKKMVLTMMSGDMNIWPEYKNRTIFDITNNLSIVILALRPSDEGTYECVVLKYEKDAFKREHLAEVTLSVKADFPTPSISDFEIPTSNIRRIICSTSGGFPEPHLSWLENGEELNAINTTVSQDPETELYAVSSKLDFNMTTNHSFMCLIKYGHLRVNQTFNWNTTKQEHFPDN

CD226 (from UniProt Q15762)
Kd (CD155 (Homo sapiens) [1]): 116 nM

CD28 (from UniProt P10747)
Kd (CD86 (Homo sapiens)): 27500 nM
Kd (CD80 (Homo sapiens)): 4000 nM

TIGIT (from UniProt Q495A1)
Kd (CD155 (Homo sapiens) [2]): 2 nM
